Assay [1] concerns the target T1, IsdA.6xHis (Staphylococcus aureus, UniProt A6QG31 47-316).
T1 construct: also called IsdA-6× His; IsdA.6×His
T1 sequence: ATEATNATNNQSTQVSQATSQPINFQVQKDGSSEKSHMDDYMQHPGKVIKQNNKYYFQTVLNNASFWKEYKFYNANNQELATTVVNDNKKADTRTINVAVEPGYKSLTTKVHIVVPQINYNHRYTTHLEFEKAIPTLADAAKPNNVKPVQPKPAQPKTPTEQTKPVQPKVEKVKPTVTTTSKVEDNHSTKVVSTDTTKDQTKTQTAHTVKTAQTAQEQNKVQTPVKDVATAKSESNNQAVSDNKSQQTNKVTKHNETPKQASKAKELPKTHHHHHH
Nature of the assay: SPR (Biacore), mAb captured by anti-human Fc, IsdA.6xHis injected, 37 C. In general terms: Surface plasmon resonance follows binding to a sensor surface in real time, without labels.
Method: (§1) The equilibrium dissociation constants (KD) to Protein A and IsdA.6×His reagents binding to purified anti-IsdA*/* and anti-Protein A*/* monoclonal antibodies were determined using a real-time surface plasmon resonance based Biacore T200 or Biacore 4000 biosensor. All binding studies were performed in 10 mM HEPES, 150 mM NaCl, 3.4 mM EDTA and 0.05% v/v Tween-20, pH 7.4 (HBS-EP) running buffer at 25° C. and 37° C. […] Proteins were injected over the captured anti-IsdA*/* and anti-Protein A*/* monoclonal antibody surface for 3-3.5 minutes at a flow rate of 30-50 μL/minute, while the dissociation of monoclonal antibody bound IsdA.6×His and Protein A reagent was monitored for 5-10 minutes in HBS-EP running buffer. The association rate (ka) and dissociation rate (kd) were determined by fitting the real-time binding sensorgrams to a 1:1 binding model with mass transport limitation using Scrubber 2.0c curve-fitting software. Binding dissociation equilibrium constant (KD) and dissociative half-life (t½) were calculated from the kinetic rates as:

Assay [2] deals with T1, IsdA.6xHis. As to the kind of experiment: SPR (Biacore), mAb captured by anti-human Fc, IsdA.6xHis injected, 25 C.
Method: as §1

B1: H1xH20334P2*/* (anti-IsdA) (antibody, V domains shown)
VH: EVQLVESGGGLVQPGRSLRVSCAASGFTFDDYAMHWVRQIPGKGLEWVSGIRWNSDTIGYADSVKGRFTISRDNAKNFLYLQMNSLRTEDTALYYCVKDMRVRGIIMYGMDVWGQGTTVTVSS
VL: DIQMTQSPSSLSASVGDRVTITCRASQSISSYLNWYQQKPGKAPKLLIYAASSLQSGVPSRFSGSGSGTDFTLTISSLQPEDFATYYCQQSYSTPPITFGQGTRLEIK
notes: also called anti-IsdA*/* monoclonal antibody
Usually Kd stands for the free concentration of one partner at which half of the binding sites on the other are occupied at equilibrium, for simple one-to-one binding. Higher therefore signals a looser complex. For orientation: koff means the first-order rate constant of dissociation. Read a low koff as a long-lived complex. For orientation: kon means the second-order rate constant of association. A low value points to slow association. As usually defined, the t½ is how long it takes for the measured level to halve. Turning to B1, in the assay with IsdA.6xHis [1], binding was characterised by a dissociation constant (Kd) of 3.49 nM, the dissociation rate constant (koff) worked out at 0.00167 s⁻¹, the association rate constant (kon) was 479000 M⁻¹ s⁻¹ and the t½ came to 7 min. Besides, in the assay with IsdA.6xHis [2], the Kd came out at 1.28 nM, the dissociation rate constant (koff) was found to be 0.000446 s⁻¹, the on-rate (kon) turned out to be 348000 M⁻¹ s⁻¹ and the t½ was determined as 26 min.

The values above are taken from patent US20240301041A1 (Regeneron, published 2024).
